The values below come from PMC11271494, “Multi-domain interaction mediated strength-building in human α-actinin dimers unveiled by direct single-molecule quantification” (Nature Communications, 2024).

Sequences and labels used below:
B3: human α-actinin 1 rod domain SR1–SR2–SR3–SR4 (shear–force constructs) (domain or fragment, UniProt P12814 267-745, looked up)
chain: AVNQENEQLMEDYEKLASDLLEWIRRTIPWLENRVPENTMHAMQQKLEDFRDYRRLHKPPKVQEKCQLEINFNTLQTKLRLSNRPAFMPSEGRMVSDINNAWGCLEQVEKGYEEWLLNEIRRLERLDHLAEKFRQKASIHEAWTDGKEAMLRQKDYETATLSEIKALLKKHEAFESDLAAHQDRVEQIAAIAQELNELDYYDSPSVNARCQKICDQWDNLGALTQKRREALERTEKLLETIDQLYLEYAKRAAPFNNWMEGAMEDLQDTFIVHTIEEIQGLTTAHEQFKATLPDADKERLAILGIHNEVSKIVQTYHVNMAGTNPYTTITPQEINGKWDHVRQLVPRRDQALTEEHARQQHNERLRKQFGAQANVIGPWIQTKMEEIGRISIEMHGTLEDQLSHLRQYEKSIVNYKPKIDQLEGDHQLIQEALIFDNKHTNYTMEHIRVGWEQLLTTIARTINEVENQILTRDAKGISQ
modifications: biotin on the AviTag (second rod of the homo-dimer construct)
notes: human α-actinin 1 (ACTN1), central rod domain of four spectrin-like repeats SR1–SR2–SR3–SR4; a full SR rod with the helical linker region has about 480 amino acids; Stood in single-chain chimeras: Spy003–(SR1–SR4)ACTN1–(GS linker, about 170 aa)–AviTag–(SR1–SR4)ACTN1 (homo-dimer; first rod bears SpyTag003, second rod the biotinylated AviTag) and Spy003–(SR1–SR4)ACTN1–(GS …)

Data set [1] concerns the target Entamoeba histolytica α-actinin 2 rod SR1–SR2 (Entamoeba histolytica). In words: single-molecule magnetic tweezers; shear–force geometry; same tethered single-chain constructs; force–jump cycles, dwell time until rupture at a target force, lifetime by exponential fit with bootstrap analysis; 1× PBS, 1% BSA, 1 mM DTT, 10 mM sodium L-ascorbate, 22 ± 1 °C.
Data set [2] shares this target. In words: single-molecule magnetic tweezers; shear–force geometry; the two partners on one chain joined by a long flexible GS linker, tethered via SpyTag003 to a SpyCatcher-coated coverslip and via the biotinylated AviTag to a streptavidin/neutravidin bead; linear force-increase scans (5 pN/s; 1 pN/s for SR2–SR3:SR2–SR3; 1 and 5 pN/s for E. histolytica) and force-decrease scans (−0.1 pN/s); 1× PBS, 1% BSA, 1 mM DTT, 10 mM sodium L-ascorbate, 22 ± 1 °C.

The target in data set [3] is B3. In words: single-molecule magnetic tweezers; shear–force geometry; same tethered single-chain constructs; force–jump cycles, dwell time until rupture at a target force, lifetime by exponential fit with bootstrap analysis; 1× PBS, 1% BSA, 1 mM DTT, 10 mM sodium L-ascorbate, 22 ± 1 °C. The settings on record: both partners purified.
Data set [4] concerns the molecule itself. Described as above.
The target in data set [5] is T1, human α-actinin 1 SR2–SR3–SR4 (human, UniProt P12814 385-745).
T1 construct: human α-actinin 1 (ACTN1), spectrin-like repeats SR2–SR3–SR4 of the rod; First half of the single-chain chimera Spy003–(SR2–SR3–SR4)ACTN1–(GS linker)–AviTag–(SR1–SR2–SR3)ACTN1; joined to m5 by the linker; also called (SR2–SR3–SR4)_(ACTN1); not shown: SpyTag003, N-terminal, kept
The description is as above. The settings on record: both partners purified.

As for “Entamoeba histolytica α-actinin 2 rod SR1–SR2 (domain or fragment)”, in data set [1], the lifetime at forces <10 pN (second state) is more than 10 s, the lifetime at forces <10 pN (third state) is more than 1 s and the lifetime at forces <15 pN (strongest state) was more than 100 s. In data set [2], this molecule came in with a peak rupture force (second state, 5 pN/s) of 20 pN; a peak rupture force (strongest state, 5 pN/s) of 33 pN; a rupture force (third state) of 5 pN.

B1: human α-actinin 4 rod domain SR1–SR2–SR3–SR4 (domain or fragment, UniProt O43707 286-764, looked up)
chain: AVNQENEHLMEDYEKLASDLLEWIRRTIPWLEDRVPQKTIQEMQQKLEDFRDYRRVHKPPKVQEKCQLEINFNTLQTKLRLSNRPAFMPSEGKMVSDINNGWQHLEQAEKGYEEWLLNEIRRLERLDHLAEKFRQKASIHEAWTDGKEAMLKHRDYETATLSDIKALIRKHEAFESDLAAHQDRVEQIAAIAQELNELDYYDSHNVNTRCQKICDQWDALGSLTHSRREALEKTEKQLEAIDQLHLEYAKRAAPFNNWMESAMEDLQDMFIVHTIEEIEGLISAHDQFKSTLPDADREREAILAIHKEAQRIAESNHIKLSGSNPYTTVTPQIINSKWEKVQQLVPKRDHALLEEQSKQQSNEHLRRQFASQANVVGPWIQTKMEEIGRISIEMNGTLEDQLSHLKQYERSIVDYKPNLDLLEQQHQLIQEALIFDNKHTNYTMEHIRVGWEQLLTTIARTINEVENQILTRDAKGISQ
modifications: biotin on the AviTag (second rod of the construct)
notes: human α-actinin 4 (ACTN4), central rod domain of four spectrin-like repeats SR1–SR2–SR3–SR4; here the ACTN4 rod bears the biotinylated AviTag; also called (SR1–SR2–SR3–SR4)_(ACTN4); not shown: SpyTag003, N-terminal, kept; AviTag, N-terminal, kept
B1: the “lifetime within 40 pN (shear geometry)” value in data set [3] and in data set [4] was more than 100 s each time.

B2: human α-actinin 1 SR1–SR2–SR3 (domain or fragment, UniProt P12814 267-625, looked up)
chain: AVNQENEQLMEDYEKLASDLLEWIRRTIPWLENRVPENTMHAMQQKLEDFRDYRRLHKPPKVQEKCQLEINFNTLQTKLRLSNRPAFMPSEGRMVSDINNAWGCLEQVEKGYEEWLLNEIRRLERLDHLAEKFRQKASIHEAWTDGKEAMLRQKDYETATLSEIKALLKKHEAFESDLAAHQDRVEQIAAIAQELNELDYYDSPSVNARCQKICDQWDNLGALTQKRREALERTEKLLETIDQLYLEYAKRAAPFNNWMEGAMEDLQDTFIVHTIEEIQGLTTAHEQFKATLPDADKERLAILGIHNEVSKIVQTYHVNMAGTNPYTTITPQEINGKWDHVRQLVPRRDQALTEEHARQ
modifications: biotin on the AviTag
notes: human α-actinin 1 (ACTN1), spectrin-like repeats SR1–SR2–SR3 of the rod; Second half of the single-chain chimera Spy003–(SR2–SR3–SR4)ACTN1–(GS linker)–AviTag–(SR1–SR2–SR3)ACTN1; joined to m4 by the linker; also called (SR1–SR2–SR3)_(ACTN1); not shown: AviTag, N-terminal, kept
B2: the “fold decrease of the force-dependent lifetime against the full rod dimer (m1 with m1)” value in data set [5] is approximately 1000 fold.

Consider B3, for which, in data set [4], the “lifetime within 40 pN (shear geometry)” value is more than 100 s.
